Residue numbers refer to the chain shown, from its start. In names and notes the source's numbering stands.
How the values were obtained:
[1] = target: Human Hsc70 (HSPA8), wild type (human, UniProt P11142 1-646); test: HDX-MS
[2] = target: the molecule itself; test: SEC + native gel or EMSA

Sequence of Human Hsc70 (HSPA8), wild type (P11142 whole entry): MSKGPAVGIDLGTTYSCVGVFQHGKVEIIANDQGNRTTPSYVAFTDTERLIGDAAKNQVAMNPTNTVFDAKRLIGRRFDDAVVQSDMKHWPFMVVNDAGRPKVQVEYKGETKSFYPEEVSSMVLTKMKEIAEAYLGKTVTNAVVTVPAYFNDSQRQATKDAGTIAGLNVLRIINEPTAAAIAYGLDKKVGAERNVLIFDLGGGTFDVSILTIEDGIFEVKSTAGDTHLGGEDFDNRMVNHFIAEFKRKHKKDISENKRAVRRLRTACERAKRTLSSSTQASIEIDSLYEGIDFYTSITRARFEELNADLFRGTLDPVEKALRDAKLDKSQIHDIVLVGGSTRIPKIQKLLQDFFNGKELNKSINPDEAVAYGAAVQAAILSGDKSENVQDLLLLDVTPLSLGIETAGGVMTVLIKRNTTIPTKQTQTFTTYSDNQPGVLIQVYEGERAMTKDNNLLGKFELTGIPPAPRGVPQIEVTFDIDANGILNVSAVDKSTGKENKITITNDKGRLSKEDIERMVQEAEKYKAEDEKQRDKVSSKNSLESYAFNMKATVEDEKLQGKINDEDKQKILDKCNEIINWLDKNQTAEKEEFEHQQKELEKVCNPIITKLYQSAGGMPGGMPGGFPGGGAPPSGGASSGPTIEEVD

B1: Human heat shock transcription factor 1 (Hsf1), wild type (natural protein)
chain: MDLPVGPGAAGPSNVPAFLTKLWTLVSDPDTDALICWSPSGNSFHVFDQGQFAKEVLPKYFKHNNMASFVRQLNMYGFRKVVHIEQGGLVKPERDDTEFQHPCFLRGQEQLLENIKRKVTSVSTLKSEDIKIRQDSVTKLLTDVQLMKGKQECMDSKLLAMKHENEALWREVASLRQKHAQQQKVVNKLIQFLISLVQSNRILGVKRKIPLMLNDSGSAHSMPKYSRQFSLEHVHGSGPYSAPSPAYSSSSLYAPDAVASSGPIISDITELAPASPMASPGGSIDERPLSSSPLVRVKEEPPSPPQSPRVEEASPGRPSSVDTLLSPTALIDSILRESEPAPASVTALTDARGHTDTEGRPPSPPPTSTPEKCLSVACLDKNELSDHLDAMDSNLDNLQTMLSSHGFSVDTSALLDLFSPSVTVPDMSLPDLDSSLASIQELLSPQEPPRPPEAENSSPDSGKQLVHYTAQPLFLLDPGSVDTGSNDLPVLFELGEGSYFSEGDGFAEDPTISLLTGSEPPKAKDPTVS
binding result [1]: binds

B2: Hsf1-I190S,I194S (natural protein)
chain: B1 chain with I190S, I194S
stoichiometry N [2]: 3

— paper doi:10.1101/803361 (bioRxiv, 2019)
